Article PMC10352241, “Structure and assembly of the NOT10:11 module of the CCR4-NOT complex” (Communications Biology, 2023)
Values belong to the binder of their own block, whether it stands above or below them.

Experiments:
Conditions in all cases: both partners purified
[1] = target: T1, NOT10:GST-NOT11 complex (Hs NOT10-L with GST-NOT11-C) (human, UniProt Q9H9A5 25-707; Q9UKZ1 257-498); test: pull-down; purified proteins; GST-NOT11-C alone or the NOT10:GST-NOT11 complex as bait, NOT1-N as prey (Fig. 3g)
T1 construct: human NOT10 (CNOT10), NOT10-L, residues D25–Q707, from pnYC-vM with a TEV-cleavable MBP tag; human NOT11 (CNOT11), NOT11-C, residues D257–D498; also called NOT10:NOT11 heterodimer; source: E. coli BL21 (DE3) Star, co-expressed, purified (glutathione agarose, TEV cleavage of MBP, HiTrap Heparin, Superdex 200); not shown: MBP, N-terminal, cleaved; GST, N-terminal, kept
T1 sequence (Q9H9A5 25-707, chain 1 of 2, other chains not shown): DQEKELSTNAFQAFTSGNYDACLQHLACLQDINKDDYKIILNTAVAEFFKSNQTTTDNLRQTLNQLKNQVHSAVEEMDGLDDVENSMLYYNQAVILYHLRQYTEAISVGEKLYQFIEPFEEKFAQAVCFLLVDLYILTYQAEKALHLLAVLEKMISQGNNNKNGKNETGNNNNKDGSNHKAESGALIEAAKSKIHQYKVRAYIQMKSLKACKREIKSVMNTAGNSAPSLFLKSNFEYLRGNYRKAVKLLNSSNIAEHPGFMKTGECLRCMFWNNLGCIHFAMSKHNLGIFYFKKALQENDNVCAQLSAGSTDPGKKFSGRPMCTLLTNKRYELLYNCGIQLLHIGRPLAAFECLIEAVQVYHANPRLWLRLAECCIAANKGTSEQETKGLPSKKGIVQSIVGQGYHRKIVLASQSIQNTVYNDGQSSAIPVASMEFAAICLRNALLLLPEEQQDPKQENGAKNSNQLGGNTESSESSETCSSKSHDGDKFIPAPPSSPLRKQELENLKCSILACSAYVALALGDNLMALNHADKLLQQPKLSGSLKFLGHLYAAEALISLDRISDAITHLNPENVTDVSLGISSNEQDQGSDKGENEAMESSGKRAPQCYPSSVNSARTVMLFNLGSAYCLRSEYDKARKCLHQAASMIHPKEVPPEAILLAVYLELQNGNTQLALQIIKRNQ

[2] = target: T2, MBP-Hs NOT10-L (residues D25–Q707) (human, UniProt Q9H9A5 25-707); test: pull-down; GST pulldown with recombinant proteins; GST-NOT11 constructs as bait, MBP-tagged NOT10 constructs as prey (Fig. 3b–f; human and Drosophila)
T2 construct: human NOT10 (CNOT10), residues D25–Q707; The MBP tag is HRV3C-cleavable (plasmid pnYC-pM); no cleavage step is described; also called isolated NOT10; source: E. coli BL21 (DE3) Star, purified (amylose resin, HiTrap Q, Superdex 200)
T2 sequence (Q9H9A5 25-707): as the sequence (Q9H9A5 25-707, chain 1 of 2, other chains not shown) above

[3] = target: T3, MBP-Hs NOT10-C (residues T351–Q707) (human, UniProt Q9H9A5 351-707); test: as above
T3 construct: human NOT10 (CNOT10), residues T351–Q707; The MBP tag is HRV3C-cleavable; no cleavage step is described; also called C-terminal portion of NOT10; source: E. coli BL21 (DE3) Star, purified (amylose resin, HiTrap Q, Superdex 200)
T3 sequence (Q9H9A5 351-707): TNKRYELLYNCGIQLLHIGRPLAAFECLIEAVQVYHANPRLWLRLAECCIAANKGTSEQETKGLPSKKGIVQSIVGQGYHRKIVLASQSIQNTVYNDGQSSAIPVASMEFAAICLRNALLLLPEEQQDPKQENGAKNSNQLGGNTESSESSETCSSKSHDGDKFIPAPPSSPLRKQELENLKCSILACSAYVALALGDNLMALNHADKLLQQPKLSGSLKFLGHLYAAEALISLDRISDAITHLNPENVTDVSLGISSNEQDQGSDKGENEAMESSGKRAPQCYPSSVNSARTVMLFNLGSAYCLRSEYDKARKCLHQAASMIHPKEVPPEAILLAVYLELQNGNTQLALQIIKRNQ

binding result [1]: binds
B1: Hs NOT1-N (residues D4–N682) (domain or fragment, human, UniProt A5YKK6 4-682, looked up)
chain: DSLSLALSQISYLVDNLTKKNYRASQQEIQHIVNRHGPEADRHLLRCLFSHVDFSGDGKSSGKDFHQTQFLIQECALLITKPNFISTLSYAIDNPLHYQKSLKPAPHLFAQLSKVLKLSKVQEVIFGLALLNSSSSDLRGFAAQFIKQKLPDLLRSYIDADVSGNQEGGFQDIAIEVLHLLLSHLLFGQKGAFGVGQEQIDAFLKTLRRDFPQERCPVVLAPLLYPEKRDILMDRILPDSGGVAKTMMESSLADFMQEVGYGFCASIEECRNIIVQFGVREVTAAQVARVLGMMARTHSGLTDGIPLQSISAPGSGIWSDGKDKSDGAQAHTWNVEVLIDVLKELNPSLNFKEVTYELDHPGFQIRDSKGLHNVVYGIQRGLGMEVFPVDLIYRPWKHAEGQLSFIQHSLINPEIFCFADYPCHTVATDILKAPPEDDNREIATWKSLDLIESLLRLAEVGQYEQVKQLFSFPIKHCPDMLVLALLQINTSWHTLRHELISTLMPIFLGNHPNSAIILHYAWHGQGQSPSIRQLIMHAMAEWYMRGEQYDQAKLSRILDVAQDLKALSMLLNGTPFAFVIDLAALASRREYLKLDKWLTDKIREHGEPFIQACMTFLKRRCPSILGGLAPEKDQPKSAQLPPETLATMLACLQACAGSVSQELSETILTMVANCSNVMN
notes: human NOT1 (CNOT1), residues D4–N682; The purification of NOT1-N is not described; source: E. coli BL21 (DE3) Star, purified

binding result [2]: binds | binding result [3]: binds
B2: GST-Hs NOT11-C (residues D257–D498) (domain or fragment)
chain: not shown
notes: human NOT11 (CNOT11), residues D257–D498; The GST tag is HRV3C-cleavable (plasmid pnEA-pG); also called GST-NOT11-C; NOT11 construct lacking the NOT11N domain; source: E. coli BL21 (DE3) Star, purified (glutathione agarose, HiTrap Q, Superdex 200); not shown: GST, N-terminal, kept
